Test results: patent US20240270853A1 (Chugai, published 2024)

T1: Recombinant mouse DDR2 ECD-Fc (R&D systems, Cat. No. 7479-DR-050) (mouse, UniProt Q62371 22-399, biotinylated)
T1 construct: Bought protein; not shown: Fc part of the bought fusion protein, not described
T1 sequence: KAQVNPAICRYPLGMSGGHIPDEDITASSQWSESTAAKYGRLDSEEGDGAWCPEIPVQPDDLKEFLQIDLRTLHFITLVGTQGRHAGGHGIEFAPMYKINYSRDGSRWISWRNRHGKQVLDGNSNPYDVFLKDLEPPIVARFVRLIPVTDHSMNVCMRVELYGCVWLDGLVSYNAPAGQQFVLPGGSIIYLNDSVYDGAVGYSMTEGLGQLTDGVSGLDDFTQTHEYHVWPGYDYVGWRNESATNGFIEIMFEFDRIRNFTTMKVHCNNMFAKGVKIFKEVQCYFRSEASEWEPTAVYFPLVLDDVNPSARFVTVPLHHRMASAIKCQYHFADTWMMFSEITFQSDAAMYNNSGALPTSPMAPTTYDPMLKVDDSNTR


Experiments:
[1] = target: T1, Recombinant mouse DDR2 ECD-Fc (R&D …); experiment: Octet tandem binning on captured mouse DDR2 ECD-Fc; competitor Ab1 (bound first) DAB0060
Method: (§1) Competitive epitope binning experiment was performed by real-time binding assay using Octet (Pall ForteBio). Recombinant mouse DDR2 ECD-Fc (R&D systems, Cat. No. 7479-DR-050) was biotinylated and captured onto streptavidin biosensor tips (Pall ForteBio) as antigen. The antigen captured tips were dipped into 15 or 40 microgram (micro g)/mL of a first set of antibodies for 300 seconds. Then the tips were incubated with 15 or 40 micro g/mL of a second set of antibodies for 300 seconds. To eliminate an effect of antibody dissociation, the antibody concentration in the second set was the same with that of the first set. Result was analyzed by DATA Analysis HT software (Pall ForteBio, Version 10.0.1.7).
(§2) In Table 3, “Abl” indicates antibody in the first set and “Ab2” indicates antibody in the second set.

[2] = target: T1, Recombinant mouse DDR2 ECD-Fc (R&D …); experiment: Octet tandem binning on captured mouse DDR2 ECD-Fc; competitor Ab1 (bound first) DAB0065
Method: as §1, §2

[3] = target: T1, Recombinant mouse DDR2 ECD-Fc (R&D …); experiment: Octet tandem binning on captured mouse DDR2 ECD-Fc; competitor Ab1 (bound first) DAB0069
Method: as §1, §2

[4] = target: T1, Recombinant mouse DDR2 ECD-Fc (R&D …); experiment: Octet tandem binning on captured mouse DDR2 ECD-Fc; competitor Ab1 (bound first) DAB0045
Method: as §1, §2

[5] = target: T1, Recombinant mouse DDR2 ECD-Fc (R&D …); experiment: Octet tandem binning on captured mouse DDR2 ECD-Fc; competitor Ab1 (bound first) DAB0048
Method: as §1, §2

[6] = target: T1, Recombinant mouse DDR2 ECD-Fc (R&D …); experiment: Octet tandem binning on captured mouse DDR2 ECD-Fc; competitor Ab1 (bound first) DAB0094
Method: as §1, §2

[7] = target: T1, Recombinant mouse DDR2 ECD-Fc (R&D …); experiment: Octet tandem binning on captured mouse DDR2 ECD-Fc; competitor Ab1 (bound first) DAB0093
Method: as §1, §2

Binder	Octet response of Ab2 [1]	Octet response of Ab2 [2]	Octet response of Ab2 [3]	Octet response of Ab2 [4]	Octet response of Ab2 [5]	Octet response of Ab2 [6]	Octet response of Ab2 [7]
DAB0048 (antibody, V domains shown, Variable regions from immunized rabbits) VH: QSVEESGGRLITPGTPLTLTCTASGFSLSIYYMIWVRQAPGKGLEWIGYIWSGSTTDYASWAKGRFTISKTSTTVDLKITSPTTEDTATYFCARVYAGYGYGSDLWGQGTLVTVSS VL: AAVLTQTPSPVSAAVGGTVSISCQSSQSVYNNNWLAWYQQKPGQPPKLLIYSASTLASGVPSRFKGSGSGTQFTLTISDVQCDDAATYYCAGGYSTNSDKNAFGGGTKVEIK	1.31	1.49	1.47	1.32	0	1.5	-0.0129
DAB0060 (antibody, V domains shown, Variable regions from immunized rabbits) VH: QSVEESGGRLVTPGTALTLTCTASGFSLSSYDMSWVRQAPGEGLEWIGTIFTEGSTSCASWVKGRFTISRTSTTVDLKITSPTTEDTATYFCVRGTTSNRLWGQGTLVTVSS VL: DVVMTQTPASVEAVVGATVTIRCQASESITNYLSWYQQKPGQPPKVLIYYASTLESGVPSRFKGSGSGTQFTLTISDLECADAATYYCQSNYFSSSYSYGNTFGGGTKVEIK	0	0.766	0.615	0.591	0.82	-0.054	0.857
DAB0094 (antibody, V domains shown, Variable regions from immunized rabbits) VH: QSVEESGGRLVTPGTPLTLTCTVSGFSLSSYSVAWVRQAPGKGLEWIGYISYSGSTYYASWVNGRFTISKTSTTVDLKMTSLTASDTATYFCARDPGYSRDLWGQGTLVTVSS VL: DVVMTQTPSSVSEPVGGTVTIKCQASQSIGSYLSWYQQKPGQPPKLLIYRASTLASGVSSRFKGSGSGTEFTLTINGLECADAAIYYCQSSYVGVSHGSFGGGTKVEIK	0.0985	1.37	1.3	1.22	1.42	0	1.48
DAB0045 (antibody, V domains shown, Variable regions from immunized rabbits) VH: QSVEESGGRLVTPGTPLTLTCTVSGFSLSSYSMGWVRQAPGKGLEYIGVINTSDSAYYASWAKGRFTISRTSTTVDLKMTSLTTEDTATYFCARAIGYYGSGWGACYFNLWGQGTLVTVSS VL: AIKMTQTPSSVSAAVGGTVTVNCQASEDIKSYLAWYQQKPGQPPKLLIYSASTLASGVSSRFKGSGSGTQFTLTISDLECADAATYYCQSYYGTSTTGEYNAFGGGTKVEIK	1.09	-0.0102	-0.001	0	1.2	1.07	1.13
DAB0065 (antibody, V domains shown, Variable regions from immunized rabbits) VH: QSVEESGGRLVTPGTPLTLTCTVSGFSLSTSAMSWVRQAPGKGLEWIGMITYGGSGSTWYASWANGRFTISKTSTTVTLKMTSPTTEDTASYFCARVYGTIGSNFYSIYSFNLWGQGTLVTVSS VL: AAVLTQTPSPVSAAVGGTVSISCQSSKSVYNSNYLSWYQQKPGQPPKLLIYYTSALASGVSSRFKGSGSGTRFTLTISDVQCDDAATYYCAGGYSSSSDNGFGGGTKVEIK	1.51	0	0.0322	0.0398	1.65	1.55	1.66
DAB0069 (antibody, V domains shown, Variable regions from immunized rabbits) VH: QSLEESGGRLVTPGTPLTLTCTASGFSLSNYYMQWVRQAPGKGLEWIGIVYPGSSAYYANWAKGRFTISKTSTTVDLKMTSLTTEDTATYFCAGSSNSVYSFNLWGQGTLVTVSS VL: AYDMTQTPSSVSAAVGGTVTIKCQASESIYRSLAWYQQKPGQPPKLLIYSASTLTSGVSSRFKGSGSGTEFTLTISDLECADAGTYYCQQGGSFSNIVNTFGGGTKVEIK	1.35	-0.0058	0	0.0335	1.57	–	1.5
